Measured values reported in publication doi:10.1101/2023.03.10.531533 (bioRxiv, 2023).

How the values were obtained:
[1] = target: recombinant SARS-CoV-1 spike protein (SARS-CoV-1, isolate , UniProt P59594, stabilised); experiment: ELISA
[2] = target: mouse Fc-tagged SARS-CoV-2 RBD (SARS-CoV-2, Wuhan-Hu-1 (assumed from …, UniProt P0DTC2)); experiment: ELISA
[3] = target: HR2 protein, residues H1159-K1211 of the SARS-CoV-2 spike (SARS-CoV-2, UniProt P0DTC2); experiment: crystal structure

B1: VHH R3DC23 (VHH)
VHH: QVQLQESGGGLVQAGDSLTLSCAVSGRIFSTYTMGWFRQAPGKEREFVAAVRWGAGTIYYADSMKGRFTISRDSAKNTVDLQMNSTKPEDTAVYYCGAAYVSKANYGSLWYQDSRRYDYWGQGTQVTVSS
binding result [1]: binds | binding result [2]: no binding | binding result [3]: binds
